Test results from article PMC10272163, “Genome-wide association studies identify OsWRKY53 as a key regulator of salt tolerance in rice”.

Biological target: MBP-OsWRKY53 (Oryza sativa (rice), UniProt A7BEY7 1-487)
Test: EMSA; 60 fmol probe, 2 ug protein; EMSA: 20 uL, 25 C 30 min, LightShift kit buffer (composition not given), 6% native PAGE, 0.5x TBE pH 8.3, 4 C; SPR: CM5 chip with anti-biotin antibody capturing biotin-oligo, 10 uL/min, reaction buffer composition and temperature not given
Conditions: protein: recombinant; tags: MBP (N-terminal, pMal-c2x); label: biotin

MBP-OsWRKY53, sequence (A7BEY7 entry or part of it): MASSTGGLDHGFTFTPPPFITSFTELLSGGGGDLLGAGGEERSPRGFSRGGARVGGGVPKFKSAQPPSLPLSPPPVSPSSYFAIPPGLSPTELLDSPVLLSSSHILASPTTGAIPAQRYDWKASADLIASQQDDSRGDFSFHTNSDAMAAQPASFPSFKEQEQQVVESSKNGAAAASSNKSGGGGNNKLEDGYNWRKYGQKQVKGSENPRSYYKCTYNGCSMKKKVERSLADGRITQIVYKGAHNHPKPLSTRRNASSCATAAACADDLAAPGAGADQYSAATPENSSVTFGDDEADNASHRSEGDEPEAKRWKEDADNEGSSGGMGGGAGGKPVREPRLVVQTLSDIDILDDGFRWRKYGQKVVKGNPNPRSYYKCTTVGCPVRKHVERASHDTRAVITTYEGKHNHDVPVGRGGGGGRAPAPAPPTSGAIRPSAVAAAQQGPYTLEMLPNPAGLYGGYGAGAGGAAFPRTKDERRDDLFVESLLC

B1: OsHKT1;5 (SKC1) promoter W-box probe, 48 bp (SKC1-biotin-F1) (dsDNA)
DNA 1: ATAAGATGTTTTTGACTTTGGTCAAAGTCAAACTGTTTATGTTTGACC
DNA 2: GGTCAAACATAAACAGTTTGACTTTGACCAAAGTCAAAAACATCTTAT
B1: binds.

B2: OsMKK10.2 promoter W-box probe, 48 bp (MKK10.2-biotin-F1) (dsDNA)
DNA 1: CGGTTTGGGAACCGACTTAGGGCGGTCAAGGCGCGAGCTGGCGCTCCG
DNA 2: CGGAGCGCCAGCTCGCGCCTTGACCGCCCTAAGTCGGTTCCCAAACCG
B2: binds.
